# Test results published in US11466067B2 (priority 2019, dated 2022).
# Tests used:
# [1] = tested on: circulating cytokines; assay: Plasma cytokines by MSD V-plex Proinflammatory Panel 1 (Example 14); format: in vivo, mice
# From the text: Plasma cytokines were quantified using the V-plex Proinflammatory Panel 1 Mouse Kit. Plasma IL-1Ra was quantitated by sandwich immunoassay using an antibody pair from the Mouse IL-1Ra/IL-1F3 DuoSet ELISA (R&D Systems #DY480), Streptavidin SULFO-TAG Labeled (MSD #R32AD-1), Multi-Array 96 Plate Pack, SECTOR Plate MSD #L15XA-3 and Read Buffer T (4×) (MSD #R92TC-2). Samples were read on the QuickPlex SQ 120 plate reader (Meso Scale Discovery, Rockville, Md.).
# [2] = tested on: polarized gut epithelial cells; assay: In vivo transcytosis across gut epithelium after intraluminal injection; set-up: species or system Wistar rats; conditions: luminal application, rat jejunum
# Description: In vivo transcytosis was tested using male Wistar rats. Male Wistar rats were housed 3-5 per cage with a 12/12 h light/dark cycle and were about 225-275 g (approximately 6-8 weeks old) when placed on study. Experiments were conducted during the light phase using a non-recovery protocol that uses continuous isoflurane anesthesia. A 4-5 cm midline abdominal incision that exposed mid-jejunum regions was conducted. Stock solutions at 3.86×10^−5M of delivery construct were prepared in phosphate buffered saline (PBS), with 50 μL (per 250 g rat) being administered by intraluminal injection (ILI) using a 29-gauge needle. The injection site mesentery was then marked with a permanent marker. At study termination, a 3-5 mm region that captured the marked intestine segment was isolated and processed for microscopic assessment. The in vivo experiments were performed in accordance with the U.K. Animals (Scientific Procedures) Act of 1986, the European Communities Council Directive of 1986 (86/609/EEC).
molecule,measurement,setting,value
"IL-10 delivery construct: recombinant homodimeric fusion protein: N-terminal methionine, cholix386 domain, polyGlySer spacer, recombinant human IL-10 (protein, homodimer) MVEEALNIFDECRSPCSLTPEPGKPIQSKLSIPSDVVLDEGVLYYSMTINDEQNDIKDEDKGESIITIGEFATVRATRHYVNQDAPFGVIHLDITTENGTKTYSYNRKEGEFAINWLVPIGEDSPASIKISVDELDQQRNIIEVPKLYSIDLDNQTLEQWKTQGNVSFSVTRPEHNIAISWPSVSYKAAQKEGSRHKRWAHWHTGLALCWLVPMDAIYNYITQQNCTLGDNWFGGSYETVAGTPKVITVKQGIEQKPVEQRIHFSKGNAMSALAAHRVCGVPLETLARSRKPRDLTDDLSCAYQAQNIVSLFVATRILFSHLDSVFTLNLDEQEPEVAERLSDLRRINENNPGMVTQVLTVARQIYNDYVTHHPGLTPEQTSAGAQAGGGGSGGGGSGGGGSPGQGTQSENSCTHFPGNLPNMLRDLRDAFSRVKTFFQMKDQLDNLLLKESLLEDFKGYLGCQALSEMIQFYLEEVMPQAENQDPDIKAHVNSLGENLKTLRLRLRRCHRFLPCENKSKAVEQVKNAFNKLQEKGIYKAMSEFDIFINYIEAYMTMKIRN",suppression of induction of plasma IL-4 (trend),[1],62%
same,suppression of induction of plasma IL-6 (trend),[1],61%
same,suppression of induction of plasma IL-12p70 (trend),[1],65%
same,suppression of induction of plasma KC/GRO (trend),[1],51%
same,plasma IL-1β and IL-2 vs Vehicle,[1]; p<0.05,significantly reduced
same,earliest time of IL-10 payload transport into the Lamina propria,[2],1 min
